Measured values taken from article PMC6559660.

Legend:
[1] = target: N-acetylneuraminate lyase from Aliivibrio salmonicida LFI1238, construct with TEV-cleavable N-terminal His6-tag (Aliivibrio salmonicida LFI1238); assay: native gel or EMSA; native PAGE of purified AsNAL (2.75 ug) beside NativeMark unstained protein standard
[2] = target: N-acetylneuraminate lyase from Aliivibrio salmonicida LFI1238, construct with TEV-cleavable N-terminal His6-tag (Aliivibrio salmonicida LFI1238); assay: SEC; Superdex 200 prep grade HiLoad 16/60 in 50 mM Tris-HCl pH 7.5, 500 mM NaCl, 5 mM beta-ME, 10% glycerol; room temperature
[3] = target: N-acetylneuraminate lyase from Aliivibrio salmonicida LFI1238, construct with C-terminal His6-tag (Aliivibrio salmonicida LFI1238); assay: crystal structure; crystals from 25% PEG 1.5 K and 20% glycerol; space group I222, one molecule in the asymmetric unit; tetramer generated by crystallographic symmetry; 1.65 A

Row | Substance | stoichiometry N [1] | stoichiometry N [2] | stoichiometry N [3]
1 | N-acetylneuraminate lyase from Aliivibrio salmonicida LFI1238, construct with TEV-cleavable N-terminal His6-tag (enzyme) | 4 | 4 | 
2 | N-acetylneuraminate lyase from Aliivibrio salmonicida LFI1238, construct with C-terminal His6-tag (enzyme) |  |  | 4
